Test results as given in the supplement of paper PMC10567573.

B1: KLHDC10 (parent)
chain: PSLLELAWEKLLAAFPNLANLSRT
B2: PLD5 (parent)
chain: WIVDKQHVYIGSAGLDWQSLGQMK

Variants of: B1
Assay: protein stability index of a GFP-peptide fusion (GPS, HEK-293T) (PSI 1-6); higher = more stable
Details: c terminus: a fixed tail appended
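Further: lentivirally expressed fusions sorted by FACS into six bins by GFP to DsRed ratio, PSI derived from sequencing read proportions per bin multiplied by bin number.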

Protein stability index, by site and new letter:
T24: F 2.06, S 2.14, H 2.56, Y 2.32, M 2.17, E 2.22, V 2.29, K 2.25, G 2.17, A 2.34, I 2.03, P 2.44, Q 1.56, C 1.6, W 2.28, R 2.6, D 2.79, N 2.23, L 1.85
A13: L 1.74, R 1.8, S 2.28, M 2.51, T 2.2, I 2.46, N 2.04, E 1.99, W 1.64, V 1.79, C 2.01, G 2.06, K 1.95, P 1.86, H 2.83, Q 2.25, Y 1.85, D 2.12, F 1.46
L21: R 2.38, Q 2.05, N 2.52, C 2.16, K 2.38, F 2.54, V 2.35, M 2.25, T 2.6, H 2.72, D 2.33, Y 2.4, E 1.82, I 1.76, A 2.14, P 2.07, G 2.22, S 2.17, W 2.6
L12: V 2.44, Q 2.23, S 1.9, T 2.37, Y 1.76, W 1.71, R 1.88
A14: F 2.82, E 2.11, V 2.4, T 2.2, K 2.1, L 2.75, Q 2.05, G 1.81, N 2.2, S 2.86, R 1.87, D 2.19, W 3.3, M 2.19, P 2.07, H 2.15, C 2.58, I 2.83, Y 3
N20: H 2.46, D 1.51, W 2.04, C 2.68, Y 2.22, R 1.89, T 1.62, S 2.59, F 2.17, I 2.24, A 2.08, E 2.25, V 2.47, Q 2.09, L 1.77, P 1.89, G 2.12, M 3.12, K 1.49
P16: D 2.2, M 2.62, G 1.25, T 2.01, N 2.03, L 1.78, Y 2.06, C 2.23, F 1.51, I 1.63, S 1.4, E 1.45, Q 2.12, V 3.1, H 1.55, W 2.35, A 1.84
L18: D 2.1, W 1.82, K 1.78, R 1.73, A 2.15, H 1.84, Q 2.35, T 1.96, C 2.23, N 2.97, M 1.84, P 2.15, S 2.01, V 1.81, E 2.35, Y 1.86, I 2.08, G 2.56, F 2.52
F15: T 2.1, N 2.31, M 2.06, G 2.08, H 2.06, Q 2.52, W 2.4, Y 1.7, S 1.92, K 1.78, D 2.3, I 1.39, A 2.23, E 2.36, C 1.78, L 2.16, R 2.11, P 2.49, V 2.38
S22: D 1.95, T 2.3, L 2.4, I 2.28, P 2.21, A 2.81, K 2.57, E 2.59, F 2.46, V 1.78, M 2.02, H 2.11, G 1.9, W 2.21, Y 1.81, N 2.23, C 2.34, Q 2.38, R 2.71
N17: S 2.29, D 2.03, L 2.15, P 1.97, V 2.18, F 2.25, C 1.81, Q 1.94, E 1.62, I 2.01, M 2.56, A 2.5, T 1.8, Y 2.44, R 2.09, W 2.94, H 2.13, G 3.66, K 1.43
R23: M 1.87, E 1.87, V 2.33, G 2.76, D 1.28, T 2.22, P 1.99, K 2.16, S 1.55, I 1.78, Q 2.1, H 2.02, C 1.98, N 2.17, W 2.34, L 2.42, Y 1.67, A 1.55, F 1.96
A19: L 1.8, I 2.32, N 2.29, H 1.93, R 2.4, F 2, T 1.77, Q 2.37, Y 2.02, E 2.31, V 2.3, W 1.57, S 2, C 2.04, K 1.95, D 2.46, M 2.1, P 2.29, G 2.17

Variants of: B2
Assay: as above
Details: c terminus: a fixed tail appended

Protein stability index: each site, then its substitutions
Q22: H 2.74, C 2.35, N 1.67, D 1.97, V 1.79, E 1.59, F 2.59
G21: M 1.89
I10: K 2.27, Q 1.83, T 1.81, W 1.96
L20: G 2.43, T 2.01, S 1.85
D16: F 2.16, M 2.83, Y 2.52, P 1.79, G 2.06, A 3.8, T 3.02
G14: R 2.29, W 3.18, E 1.54, T 1.25, M 1.63
M23: W 2.19, E 2.11, Q 2.09, H 1.32
S12: D 1.57, A 1.65, E 1.52, H 1.62
Q18: K 1.61, S 2.16, F 4.52, M 3.07, P 1.85, G 2.4
Y9: E 2.13, A 2.33, D 1.91, V 1.93, C 1.54, G 1.96, K 1.33
W17: S 2.36, C 1.73, E 2.1, T 1.9
D4: N 3.09, W 1.96, R 3.94
A13: D 1.33, C 2.08, Y 1.98, W 1.56, M 1.9, V 3.68
H7: Y 2.6, S 2.26, K 1.54
V8: L 1.93, E 2.01, P 2.06, I 2.31
V3: D 2.02, F 1.96
Q6: F 2.05, S 1.37, K 1.66, M 2.63, N 1.58, A 1.51
K24: M 2.58, L 2.68, R 1.51
K5: T 2.98, G 1.8, H 1.55
S19: A 2.23, E 2.06
I2: Y 1.82, V 1.39
W1: V 1.79, K 2.32, L 2.12
G11: C 2.07, I 2.71, T 1.71, D 1.46, N 2.32
L15: R 1.55, I 1.31, Y 1.67, N 2.01, P 1.99, W 1.51, F 1.14
